# Positions count from the first letter of the chain named.
# B1: 3I14-mHgL IgG1 (mature heavy chain, germline light chain) (antibody, V domains shown)
# VH: QVQLLESGGGVVQPGRSLRLSCAASGFTFSNYGMHWVRQAPGKGLEWVAIISFDGSKKYYANSVKGRSTISRDNSKNTLSLQMNSLGPEDTALYYCAKLPSPYYFDSRFVWVAASAFHFWGQGILVTVSS
# VL: not shown
# B2: 3I14 VLD94N variant IgG1 (antibody, V domains shown)
# VH: B1 VH
# VL: NFMLTQPPSASGTPGQRVTISCSGSSSNIGGNTVHWFQQLPGTAPKLLIYTNSLRPSGVPDRFSGSKSGTSASLAISGLQSEDEADYYCAAWDNSLNGQVFGGGTKLTVL
# B3: 3I14-GL IgG1 (VH and VL germline versions) (antibody, V domains shown)
# VH: QVQLVESGGGVVQPGRSLRLSCAASGFTFSSYGMHWVRQAPGKGLEWVAVISYDGSNKYYADSVKGRFTISRDNSKNTLYLQMNSLRAEDTAVYYCAKLPSPYYYDSRFVWVAASYFDYWGQGTLVTVSS
# VL: not shown
# B4: 3I14-gHmL IgG1 (germline heavy chain, mature light chain) (antibody, V domains shown)
# VH: B3 VH
# VL: B2 VL with N94D
# Tests used:
# [1] = molecular target: T1, Recombinant full-length HA of A/Perth/16/09 (H3-PE09) (influenza A virus A/Perth/16/09); experiment: BLI; settings: both partners purified
# [2] = molecular target: T1, Recombinant full-length HA of …; experiment: BLI; settings: both partners purified; remark: listed apart in the source
Binder,Kd [1] [nM],koff [1] [s⁻¹],kon [1] [M⁻¹ s⁻¹],Kd [2] [nM],koff [2] [s⁻¹],kon [2] [M⁻¹ s⁻¹]
B1,0.658,0.000126,192000,,,
B2,,,,0.308,5.44e-05,177000
B3,4.02,0.000556,139000,,,
B4,0.733,0.000125,171000,,,

# Reference: article PMC5027281 (Nature Communications, 2016)
